Test results as given in US20050261472A1, “Binding moieties for fibrin” (Dyax Corp., priority 1999, published 2005).
Like-named read-outs stand apart in the source and are kept apart here. Blank lines part the entries; values can stand above or below the molecule they belong to. Bridge positions count the residues as written; N and C are the ends. Ends that are not written are not given here. Peptide text beside a SMILES is read from it.

Columns and labels:
[1] = biological target: T1, DD(E) (Homo sapiens, UniProt P02671+P02675+P02679); assay: dissociation constant against fibrin-derived polypeptide DD(E); format: binding; conditions: read-out: Kd DD(E)
T1 construct: host or cells: purchased fibrinogen clotted with thrombin, digested with plasmin, then purified by ammonium sulfate cuts and Sephacryl S200
Procedure: The soluble fibrin-derived polypeptide DD(E) was prepared following a modification of a published method (Moskoitz and Budzynksi, Biochemistry, 33: 12937-12944 (1994) and references therein). Fibrinogen containing a Factor XIII trace impurity (1 g, Grade L; purchased from American Diagnostica) was dissolved in TBS buffer and dialyzed overnight against TBS containing 5 mM citrate. The fibrinogen concentration was adjusted to 3.0 mg/ml and CaCl2 was added to a concentration of 10 mM. Clotting of the fibrinogen was initiated by the addition of thrombin to 0.5 U/ml and the clot was incubated for 3 hours at 37° C. The clot was cut up with a spatula to release water and to concentrate the clot. The clot pieces were washed twice with TBS.Ca buffer (TBS containing 2 mM CaCl2) and were centrifuged at 4,000×g to compact the clots between washes. The clot material was resuspended in 250 ml TBS containing 25 mM CaCl2 and 2 K.I.U. plasmin per mg fibrin. The clots were digested overnight at 20° C. Undigested clot was removed by pipette, and the supernatant was shaken with 10 ml of Lysine Sepharose (Pharmacia) for 30 minutes and filtered to remove the resin. Aprotinin was added to the filtrate to a concentration of 500 U/μL. Ammonium Sulfate was added to 30% saturation and the precipitated protein was removed by centrifugation. More ammonium sulfate was added to the supernatant to a final concentration of 50% saturation, and the precipitated protein was concentrated by centrifugation. The pellets, containing DD(E), were resuspended in a small volume of buffer (50 mM Tris, 150 mM NaCl, 2 mM CaCl2) (<10 ml) and chromatographed on a Sephacryl S200 (Pharmacia) size exclusion column (5×100 cm) in the same buffer. Fractions of protein eluted from the column were assayed by SDS-PAGE for DD(E). DD(E) contains subunits of 55 kD (Fragment E) and 190 kD (Fragment DD). […]
Dissociation constants were determined against DD(E) as described above.

[2] = biological target: DD(E) soluble fibrin-derived polypeptide (UniProt P02671); assay: Kd against DD(E) target
[3] = sequences of phage isolates from TN10-9 and TN6-6 libraries (Table 5)

T1 sequence (P02671 130-216): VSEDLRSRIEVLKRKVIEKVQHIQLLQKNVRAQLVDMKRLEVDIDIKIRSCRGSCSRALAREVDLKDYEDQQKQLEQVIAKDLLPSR
T1 sequence (P02675 164-491): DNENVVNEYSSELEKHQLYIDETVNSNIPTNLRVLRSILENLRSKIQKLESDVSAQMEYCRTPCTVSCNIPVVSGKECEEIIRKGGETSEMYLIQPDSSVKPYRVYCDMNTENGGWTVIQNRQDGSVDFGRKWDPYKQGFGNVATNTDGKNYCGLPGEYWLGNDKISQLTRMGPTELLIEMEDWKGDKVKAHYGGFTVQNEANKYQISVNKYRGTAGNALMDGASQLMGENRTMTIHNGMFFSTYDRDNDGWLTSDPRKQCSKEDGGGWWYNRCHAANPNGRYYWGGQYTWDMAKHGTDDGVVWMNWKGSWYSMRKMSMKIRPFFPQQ
T1 sequence (P02679 114-432): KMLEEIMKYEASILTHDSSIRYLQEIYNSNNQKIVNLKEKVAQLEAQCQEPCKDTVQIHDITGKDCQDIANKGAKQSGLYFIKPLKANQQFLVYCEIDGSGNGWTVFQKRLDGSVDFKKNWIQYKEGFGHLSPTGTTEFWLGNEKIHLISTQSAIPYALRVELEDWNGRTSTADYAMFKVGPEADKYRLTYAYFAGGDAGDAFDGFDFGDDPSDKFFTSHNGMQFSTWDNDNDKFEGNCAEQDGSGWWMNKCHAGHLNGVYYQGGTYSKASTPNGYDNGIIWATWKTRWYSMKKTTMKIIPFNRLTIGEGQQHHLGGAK
T1 sequence (P02671 36-97): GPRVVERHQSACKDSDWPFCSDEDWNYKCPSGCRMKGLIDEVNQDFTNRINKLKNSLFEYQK
T1 sequence (P02675 45-152): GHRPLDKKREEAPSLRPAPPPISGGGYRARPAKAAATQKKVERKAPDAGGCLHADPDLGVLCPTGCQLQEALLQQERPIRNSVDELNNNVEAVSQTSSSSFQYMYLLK
T1 sequence (P02679 27-88): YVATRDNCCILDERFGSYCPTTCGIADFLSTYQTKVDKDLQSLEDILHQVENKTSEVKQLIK

Molecule: CC[C@H](C)[C@H](NC(=O)[C@H](Cc1c[nH]c2ccccc12)NC(=O)[C@@H]1CSSC[C@H](NC(=O)[C@H](CCC(=O)O)NC(=O)[C@@H](N)Cc2c[nH]c3ccccc23)C(=O)N2CCC[C@H]2C(=O)N[C@@H](Cc2ccc(O)cc2)C(=O)NCC(=O)N[C@@H](CC(C)C)C(=O)N1)C(N)=O [SEQ ID NO: 63, WECPYGLCWI] (H-WECPYGLCWI-NH2; disulfide 3-8; N-terminus and C-terminus assumed)
Kd [1]: 3.87 µM

Molecule: QWECPYGLCWIQ [compound 22]
Kd [1, 3]: 0.74 µM

Molecule: CC(C)C[C@H](NC(=O)[C@@H]1CSSC[C@H](NC(=O)[C@@H]2CCCN2C(=O)[C@@H](N)CC(C)C)C(=O)N[C@@H](CO)C(=O)N[C@@H](Cc2ccc(O)cc2)C(=O)N[C@@H](Cc2ccc(O)cc2)C(=O)NCC(=O)N[C@@H]([C@@H](C)O)C(=O)N1)C(=O)N[C@@H](Cc1c[nH]cn1)C(N)=O [SEQ ID NO: 12, LPCSYYGTCLH] (H-LPCSYYGTCLH-NH2; disulfide 3-9)
Kd [1]: 9.8 µM

Molecule: WFHCPYDLCHIL [compound 21]
Kd [1, 3]: 1.4 µM

Molecule: LPCDYXGTCLD (1-naphthyl residue (Nal) at position 6; C-terminal amide; N-terminus free) [substituted peptide LPCDYNalGTCLD]
Kd [2]: 125 µM

Molecule: H-CDYYGTC-NH2 (disulfide 1-7 (inferred)) [truncated peptide CDYYGTC]
Kd [2]: 38 µM

B4: synthetic polypeptide … (peptide)
peptide: H-LPCSYYGTCLH-NH2
modifications: disulfide 3-9
SMILES: CC(C)C[C@H](NC(=O)[C@@H]1CSSC[C@H](NC(=O)[C@@H]2CCCN2C(=O)[C@@H](N)CC(C)C)C(=O)N[C@@H](CO)C(=O)N[C@@H](Cc2ccc(O)cc2)C(=O)N[C@@H](Cc2ccc(O)cc2)C(=O)NCC(=O)N[C@@H]([C@@H](C)O)C(=O)N1)C(=O)N[C@@H](Cc1c[nH]cn1)C(N)=O
Kd [2]: 9.8 µM

Molecule: H-LPCDYYGVCLD-NH2 (disulfide 3-9 (inferred))
Kd [2]: 28 µM

B6: synthetic polypeptide … (peptide)
peptide: H-FACHYYGTCLH-NH2
modifications: disulfide 3-9
SMILES: CC(C)C[C@H](NC(=O)[C@@H]1CSSC[C@H](NC(=O)[C@H](C)NC(=O)[C@@H](N)Cc2ccccc2)C(=O)N[C@@H](Cc2c[nH]cn2)C(=O)N[C@@H](Cc2ccc(O)cc2)C(=O)N[C@@H](Cc2ccc(O)cc2)C(=O)NCC(=O)N[C@@H]([C@@H](C)O)C(=O)N1)C(=O)N[C@@H](Cc1c[nH]cn1)C(N)=O
Kd [2]: 7.3 µM

Molecule: H-LPCDYYGSCLD-NH2 (disulfide 3-9 (inferred))
Kd [2]: 26 µM

B7: alanine scan peptide … (peptide)
peptide: H-LPCDYYGTCAD-NH2
modifications: disulfide 3-9
SMILES: CC(C)C[C@H](N)C(=O)N1CCC[C@H]1C(=O)N[C@H]1CSSC[C@@H](C(=O)N[C@@H](C)C(=O)N[C@@H](CC(=O)O)C(N)=O)NC(=O)[C@H]([C@@H](C)O)NC(=O)CNC(=O)[C@H](Cc2ccc(O)cc2)NC(=O)[C@H](Cc2ccc(O)cc2)NC(=O)[C@H](CC(=O)O)NC1=O
Kd [2]: 10.1 µM

Molecule: LPCDYYATCLD (C-terminal amide; N-terminus free)
Kd [2]: 12.3 µM

Molecule: H-CDYYGTCL-NH2 (disulfide 1-7 (inferred)) [truncated peptide CDYYGTCL]
Kd [2]: 22 µM

Molecule: H-PCDYYGTCL-NH2 (disulfide 2-8 (inferred)) [truncated peptide …]
Kd [2]: 50 µM

Continued by falling Kd [2], values first:

Kd [2]: 6.7 µM
Molecule: GFHCPYDLCHIL

Kd [2]: 5.9 µM
B8: alanine scan peptide … (peptide)
peptide: H-LPCAYYGTCLD-NH2
modifications: disulfide 3-9
SMILES: CC(C)C[C@H](NC(=O)[C@@H]1CSSC[C@H](NC(=O)[C@@H]2CCCN2C(=O)[C@@H](N)CC(C)C)C(=O)N[C@@H](C)C(=O)N[C@@H](Cc2ccc(O)cc2)C(=O)N[C@@H](Cc2ccc(O)cc2)C(=O)NCC(=O)N[C@@H]([C@@H](C)O)C(=O)N1)C(=O)N[C@@H](CC(=O)O)C(N)=O

Kd [2]: 4.9 µM
Molecule: LPCDYYXTCLD (not fully specified; D-alanine at position 7) [D-alanine peptide LPCDYYdATCLD]

Kd [2]: 4.5 µM
B5: alanine scan peptide … (peptide)
peptide: H-LPCDAYGTCLD-NH2
modifications: disulfide 3-9
SMILES: CC(C)C[C@H](NC(=O)[C@@H]1CSSC[C@H](NC(=O)[C@@H]2CCCN2C(=O)[C@@H](N)CC(C)C)C(=O)N[C@@H](CC(=O)O)C(=O)N[C@@H](C)C(=O)N[C@@H](Cc2ccc(O)cc2)C(=O)NCC(=O)N[C@@H]([C@@H](C)O)C(=O)N1)C(=O)N[C@@H](CC(=O)O)C(N)=O

Kd [2]: 4 µM
B1: synthetic polypeptide … (peptide)
peptide: H-RPCNYYGTCLH-NH2
modifications: disulfide 3-9
SMILES: CC(C)C[C@H](NC(=O)[C@@H]1CSSC[C@H](NC(=O)[C@@H]2CCCN2C(=O)[C@@H](N)CCCNC(=N)N)C(=O)N[C@@H](CC(N)=O)C(=O)N[C@@H](Cc2ccc(O)cc2)C(=O)N[C@@H](Cc2ccc(O)cc2)C(=O)NCC(=O)N[C@@H]([C@@H](C)O)C(=O)N1)C(=O)N[C@@H](Cc1c[nH]cn1)C(N)=O

Kd [2]: 3.87 µM
Molecule: WECPYGLCWI

Kd [2]: 3.8 µM
Molecule: HCPYDLCHIL

Kd [2]: 3.4 µM
B3: synthetic polypeptide … (peptide)
peptide: H-RPCDYYGTCFD-NH2
modifications: disulfide 3-9
SMILES: C[C@@H](O)[C@@H]1NC(=O)CNC(=O)[C@H](Cc2ccc(O)cc2)NC(=O)[C@H](Cc2ccc(O)cc2)NC(=O)[C@H](CC(=O)O)NC(=O)[C@@H](NC(=O)[C@@H]2CCCN2C(=O)[C@@H](N)CCCNC(=N)N)CSSC[C@@H](C(=O)N[C@@H](Cc2ccccc2)C(=O)N[C@@H](CC(=O)O)C(N)=O)NC1=O

Kd [2]: 2.9 µM
B2: alanine scan peptide … (peptide)
peptide: H-LACDYYGTCLD-NH2
modifications: disulfide 3-9
SMILES: CC(C)C[C@H](NC(=O)[C@@H]1CSSC[C@H](NC(=O)[C@H](C)NC(=O)[C@@H](N)CC(C)C)C(=O)N[C@@H](CC(=O)O)C(=O)N[C@@H](Cc2ccc(O)cc2)C(=O)N[C@@H](Cc2ccc(O)cc2)C(=O)NCC(=O)N[C@@H]([C@@H](C)O)C(=O)N1)C(=O)N[C@@H](CC(=O)O)C(N)=O

Kd [2]: 2.9 µM
B9: Gd-DTPA-Gly[SEQ ID NO: 21] (peptide)
peptide: GWFHCPYDLCHIL
modifications: disulfide 5-10 (inferred); not fully specified (N-terminus); printed as Trp-Phe-His-Cys-Pro-Tyr-Asp-Leu-Cys-His-Ile-Leu; also: Gd(III) chelated by DTPA on N-terminal Gly

Kd [2]: 2.6 µM
Molecule: H-LPCDYYGTCLD-NH2 (disulfide 3-9 (inferred))

Kd [2]: 2.23 µM
Molecule: ECPYGLCWIQ

Kd [2]: 2 µM
Molecule: FHCPYDLCHI

Kd [2]: 0.94 µM
Molecule: WECPYGLCWIQ

Kd [2]: 0.41 µM
Molecule: FHCPYDLCHIL
